Our source for the binding result and cells in S-phase values is patent publication US7067646 (Dana-Farber, dated 2006).

In assay [1] the target is T1, MTAF600 (microtubule associated factor 600) (human, UniProt Q5T4S7 1-5183).
T1 construct: Native endogenous protein of HeLa nuclear extracts (5183 residues); also called MT-associated factor (MTAF) 600; 600 kDa subunit
Nature of the assay: MTAF600 immobilised on matrix incubated with GST-RB, immunoblot. In general terms: Immunoblotting shows a protein as a band on a membrane.

Assay [2] addresses endogenous RB family proteins. The assay can be described thus: cell-based or functional assay.
For assay [3], the target named is T1, MTAF600 (microtubule associated factor …). Nature of the assay: GST pull-down from HeLa nuclear extract, immunoblot.
For assay [4] the target is unchanged. The assay can be described thus: co-immunoprecipitation from HeLa extract, immunoblot.
Assay [5] shares this target. The assay can be described thus: anti-FLAG immunoprecipitation of f:RB from HeLa nuclear extract, SDS-PAGE.

T1 sequence (Q5T4S7 other isoform, or with tags, fused parts or gaps limits assumed): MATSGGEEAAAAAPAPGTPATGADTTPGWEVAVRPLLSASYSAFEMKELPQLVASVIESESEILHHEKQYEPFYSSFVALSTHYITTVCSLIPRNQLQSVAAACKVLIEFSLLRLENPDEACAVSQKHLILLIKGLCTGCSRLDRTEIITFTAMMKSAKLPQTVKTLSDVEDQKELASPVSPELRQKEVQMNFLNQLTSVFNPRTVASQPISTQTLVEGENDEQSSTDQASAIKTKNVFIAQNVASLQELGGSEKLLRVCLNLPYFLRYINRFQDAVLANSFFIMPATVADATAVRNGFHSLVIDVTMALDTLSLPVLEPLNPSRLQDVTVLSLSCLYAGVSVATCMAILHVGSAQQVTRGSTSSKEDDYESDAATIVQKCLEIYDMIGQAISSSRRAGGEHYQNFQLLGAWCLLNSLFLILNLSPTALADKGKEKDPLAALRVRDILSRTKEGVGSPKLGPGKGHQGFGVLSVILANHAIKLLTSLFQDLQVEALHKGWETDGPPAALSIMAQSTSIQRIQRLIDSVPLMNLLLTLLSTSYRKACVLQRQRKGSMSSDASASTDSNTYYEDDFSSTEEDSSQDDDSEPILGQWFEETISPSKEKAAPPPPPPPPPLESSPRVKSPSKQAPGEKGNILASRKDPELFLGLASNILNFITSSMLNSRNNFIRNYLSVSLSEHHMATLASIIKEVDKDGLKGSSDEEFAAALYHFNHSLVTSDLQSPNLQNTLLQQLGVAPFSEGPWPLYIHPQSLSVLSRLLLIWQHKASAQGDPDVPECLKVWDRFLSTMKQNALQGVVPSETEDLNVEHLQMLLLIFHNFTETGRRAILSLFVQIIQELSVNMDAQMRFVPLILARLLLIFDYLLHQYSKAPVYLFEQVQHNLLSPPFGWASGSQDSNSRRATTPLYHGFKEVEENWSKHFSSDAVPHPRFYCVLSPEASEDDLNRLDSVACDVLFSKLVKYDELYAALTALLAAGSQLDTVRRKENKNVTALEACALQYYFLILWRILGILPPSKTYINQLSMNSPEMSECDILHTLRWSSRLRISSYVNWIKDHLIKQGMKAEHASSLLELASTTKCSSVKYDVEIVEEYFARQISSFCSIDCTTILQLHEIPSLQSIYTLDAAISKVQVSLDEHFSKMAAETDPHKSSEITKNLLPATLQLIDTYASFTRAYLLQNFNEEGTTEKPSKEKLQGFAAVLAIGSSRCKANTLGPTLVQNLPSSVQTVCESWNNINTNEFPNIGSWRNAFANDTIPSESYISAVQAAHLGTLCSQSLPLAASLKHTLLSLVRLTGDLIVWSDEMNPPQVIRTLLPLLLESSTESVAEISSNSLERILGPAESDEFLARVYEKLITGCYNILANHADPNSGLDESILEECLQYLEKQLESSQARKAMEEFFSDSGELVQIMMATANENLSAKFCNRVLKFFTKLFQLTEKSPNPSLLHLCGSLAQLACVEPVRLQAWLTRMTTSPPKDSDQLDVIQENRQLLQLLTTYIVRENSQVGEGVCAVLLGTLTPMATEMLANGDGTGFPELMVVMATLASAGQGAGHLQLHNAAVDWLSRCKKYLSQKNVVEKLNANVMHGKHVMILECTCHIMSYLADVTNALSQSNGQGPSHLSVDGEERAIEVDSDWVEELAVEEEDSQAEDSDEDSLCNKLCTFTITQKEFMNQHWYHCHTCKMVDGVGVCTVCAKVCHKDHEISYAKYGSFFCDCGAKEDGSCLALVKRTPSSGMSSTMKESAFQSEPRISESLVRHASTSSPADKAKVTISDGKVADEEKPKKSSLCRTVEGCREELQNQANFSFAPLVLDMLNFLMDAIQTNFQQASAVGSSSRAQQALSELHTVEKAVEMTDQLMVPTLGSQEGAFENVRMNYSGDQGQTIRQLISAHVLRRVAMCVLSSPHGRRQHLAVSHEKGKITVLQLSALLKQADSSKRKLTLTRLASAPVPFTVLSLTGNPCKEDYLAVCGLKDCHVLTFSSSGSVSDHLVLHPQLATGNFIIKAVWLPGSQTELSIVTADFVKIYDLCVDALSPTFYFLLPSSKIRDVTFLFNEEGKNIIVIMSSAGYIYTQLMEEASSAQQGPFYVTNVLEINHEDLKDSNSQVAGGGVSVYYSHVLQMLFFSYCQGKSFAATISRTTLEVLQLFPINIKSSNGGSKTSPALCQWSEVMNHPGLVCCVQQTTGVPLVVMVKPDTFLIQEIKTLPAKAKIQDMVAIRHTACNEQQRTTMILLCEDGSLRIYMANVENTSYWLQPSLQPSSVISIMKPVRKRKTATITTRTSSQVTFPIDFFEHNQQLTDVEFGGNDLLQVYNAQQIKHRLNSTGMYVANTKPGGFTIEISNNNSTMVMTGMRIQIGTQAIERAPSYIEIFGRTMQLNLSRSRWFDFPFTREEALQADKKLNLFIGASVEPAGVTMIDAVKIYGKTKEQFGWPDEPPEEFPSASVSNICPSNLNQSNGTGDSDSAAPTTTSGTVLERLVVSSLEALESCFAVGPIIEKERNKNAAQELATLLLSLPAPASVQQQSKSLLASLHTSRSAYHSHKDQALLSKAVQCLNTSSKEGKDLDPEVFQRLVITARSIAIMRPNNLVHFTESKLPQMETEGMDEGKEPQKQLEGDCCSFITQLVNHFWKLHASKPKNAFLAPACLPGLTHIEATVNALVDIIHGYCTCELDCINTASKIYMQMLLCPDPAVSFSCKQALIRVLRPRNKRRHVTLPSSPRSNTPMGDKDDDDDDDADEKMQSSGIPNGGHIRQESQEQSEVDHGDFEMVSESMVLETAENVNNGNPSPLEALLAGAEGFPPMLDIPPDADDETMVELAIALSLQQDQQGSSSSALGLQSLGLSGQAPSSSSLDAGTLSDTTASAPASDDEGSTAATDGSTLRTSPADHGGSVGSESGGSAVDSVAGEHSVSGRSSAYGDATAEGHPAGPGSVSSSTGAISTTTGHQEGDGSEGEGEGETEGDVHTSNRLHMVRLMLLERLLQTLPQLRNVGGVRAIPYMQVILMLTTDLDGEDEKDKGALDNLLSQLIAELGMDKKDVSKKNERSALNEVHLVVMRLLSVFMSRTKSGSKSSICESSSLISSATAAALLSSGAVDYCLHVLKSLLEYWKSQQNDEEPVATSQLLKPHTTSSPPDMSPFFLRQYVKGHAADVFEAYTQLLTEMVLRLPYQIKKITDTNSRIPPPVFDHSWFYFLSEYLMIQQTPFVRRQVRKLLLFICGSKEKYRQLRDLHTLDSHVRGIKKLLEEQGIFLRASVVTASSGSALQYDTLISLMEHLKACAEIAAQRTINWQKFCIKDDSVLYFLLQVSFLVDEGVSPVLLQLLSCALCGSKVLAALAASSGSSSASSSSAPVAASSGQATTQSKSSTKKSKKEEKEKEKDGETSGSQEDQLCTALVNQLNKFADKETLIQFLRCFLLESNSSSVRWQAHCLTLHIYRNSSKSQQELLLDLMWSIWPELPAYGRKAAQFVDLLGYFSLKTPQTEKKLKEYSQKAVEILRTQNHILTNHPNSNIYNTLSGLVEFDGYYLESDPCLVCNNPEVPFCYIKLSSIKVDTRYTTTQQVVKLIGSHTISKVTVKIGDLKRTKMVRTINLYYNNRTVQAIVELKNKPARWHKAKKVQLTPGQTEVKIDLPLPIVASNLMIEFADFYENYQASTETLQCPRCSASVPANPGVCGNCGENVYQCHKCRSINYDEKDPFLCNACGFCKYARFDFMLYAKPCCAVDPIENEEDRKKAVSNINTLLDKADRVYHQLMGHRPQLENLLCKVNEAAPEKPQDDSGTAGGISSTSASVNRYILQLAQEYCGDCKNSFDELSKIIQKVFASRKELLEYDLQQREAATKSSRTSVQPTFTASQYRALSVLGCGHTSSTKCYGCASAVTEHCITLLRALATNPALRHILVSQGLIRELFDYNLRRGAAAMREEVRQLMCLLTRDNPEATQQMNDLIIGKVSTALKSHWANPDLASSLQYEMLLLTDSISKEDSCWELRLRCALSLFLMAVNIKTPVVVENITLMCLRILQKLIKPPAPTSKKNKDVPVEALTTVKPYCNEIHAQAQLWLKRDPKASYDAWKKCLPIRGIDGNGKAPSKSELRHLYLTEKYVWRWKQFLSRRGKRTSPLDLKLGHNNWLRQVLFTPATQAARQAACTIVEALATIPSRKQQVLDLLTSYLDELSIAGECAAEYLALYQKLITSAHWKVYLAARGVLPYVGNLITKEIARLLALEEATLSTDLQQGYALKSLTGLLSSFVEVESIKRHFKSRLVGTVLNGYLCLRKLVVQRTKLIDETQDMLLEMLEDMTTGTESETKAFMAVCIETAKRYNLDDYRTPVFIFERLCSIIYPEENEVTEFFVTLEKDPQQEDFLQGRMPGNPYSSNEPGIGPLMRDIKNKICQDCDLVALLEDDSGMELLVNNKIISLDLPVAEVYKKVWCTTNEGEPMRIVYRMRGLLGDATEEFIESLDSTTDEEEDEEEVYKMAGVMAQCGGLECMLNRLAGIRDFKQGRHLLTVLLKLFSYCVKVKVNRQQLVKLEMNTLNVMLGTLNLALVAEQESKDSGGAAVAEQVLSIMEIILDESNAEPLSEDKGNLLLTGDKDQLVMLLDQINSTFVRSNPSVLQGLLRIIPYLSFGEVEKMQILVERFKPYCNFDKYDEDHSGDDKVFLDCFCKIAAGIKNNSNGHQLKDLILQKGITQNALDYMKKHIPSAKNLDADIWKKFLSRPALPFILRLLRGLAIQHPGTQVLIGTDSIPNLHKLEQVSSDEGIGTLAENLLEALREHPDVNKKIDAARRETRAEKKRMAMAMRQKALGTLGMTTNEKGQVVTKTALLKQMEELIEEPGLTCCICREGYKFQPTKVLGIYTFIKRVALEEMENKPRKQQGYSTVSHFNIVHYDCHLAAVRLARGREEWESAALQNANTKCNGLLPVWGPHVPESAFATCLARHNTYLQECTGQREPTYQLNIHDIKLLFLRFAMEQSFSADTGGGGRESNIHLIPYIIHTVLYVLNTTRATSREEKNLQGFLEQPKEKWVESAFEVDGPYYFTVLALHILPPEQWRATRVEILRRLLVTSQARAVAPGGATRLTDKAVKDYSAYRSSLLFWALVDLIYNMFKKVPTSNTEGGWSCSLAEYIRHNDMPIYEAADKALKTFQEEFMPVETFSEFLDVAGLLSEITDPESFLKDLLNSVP

B1: GST-RB (379-928) (other, UniProt P06400 379-928, looked up)
chain: MNTIQQLMMILNSASDQPSENLISYFNNCTVNPKESILKRVKDIGYIFKEKFAKAVGQGCVEIGSQRYKLGVRLYYRVMESMLKSEEERLSIQNFSKLLNDNIFHMSLLACALEVVMATYSRSTSQNLDSGTDLSFPWILNVLNLKAFDFYKVIESFIKAEGNLTREMIKHLERCEHRIMESLAWLSDSPLFDLIKQSKDREGPTDHLESACPLNLPLQNNHTAADMYLSPVRSPKKKGSTTRVNSTANAETQATSAFQTQKPLKSTSLSLFYKKVYRLAYLRLNTLCERLLSEHPELEHIIWTLFQHTLQNEYELMRDRHLDQIMMCSMYGICKVKNIDLKFKIIVTAYKDLPHAVQETFKRVLIKEEEYDSIIVFYNSVFMQRLKTNILQYASTRPPTLSPIPHIPRSPYKFPSSPLRIPGGNIYISPLKSPYKISEGLPTPTKMTPRSRILVSIGESFGTSEKFQKINQMVCNSDRVLKRSAEGSNPPKPLKKLRFDIEGSDEADGSKHLPGESKFQQKLAEMTSTRTRMQKQKMNDSMDTSNKEEK
notes: Expressed in E. coli; also called large pocket domain of RB as GST fusion; not shown: glutathione S-transferase (GST) fusion partner of vector pGEX6P-1
As to B1, the binding result in assay [1] is “binds”.

B2: FLAG-tagged MTAF600 (3910-4851), Q5T4S7 3910-4851 (protein)
chain: FDYNLRRGAAAMREEVRQLMCLLTRDNPEATQQMNDLIIGKVSTALKSHWANPDLASSLQYEMLLLTDSISKEDSCWELRLRCALSLFLMAVNIKTPVVVENITLMCLRILQKLIKPPAPTSKKNKDVPVEALTTVKPYCNEIHAQAQLWLKRDPKASYDAWKKCLPIRGIDGNGKAPSKSELRHLYLTEKYVWRWKQFLSRRGKRTSPLDLKLGHNNWLRQVLFTPATQAARQAACTIVEALATIPSRKQQVLDLLTSYLDELSIAGECAAEYLALYQKLITSAHWKVYLAARGVLPYVGNLITKEIARLLALEEATLSTDLQQGYALKSLTGLLSSFVEVESIKRHFKSRLVGTVLNGYLCLRKLVVQRTKLIDETQDMLLEMLEDMTTGTESETKAFMAVCIETAKRYNLDDYRTPVFIFERLCSIIYPEENEVTEFFVTLEKDPQQEDFLQGRMPGNPYSSNEPGIGPLMRDIKNKICQDCDLVALLEDDSGMELLVNNKIISLDLPVAEVYKKVWCTTNEGEPMRIVYRMRGLLGDATEEFIESLDSTTDEEEDEEEVYKMAGVMAQCGGLECMLNRLAGIRDFKQGRHLLTVLLKLFSYCVKVKVNRQQLVKLEMNTLNVMLGTLNLALVAEQESKDSGGAAVAEQVLSIMEIILDESNAEPLSEDKGNLLLTGDKDQLVMLLDQINSTFVRSNPSVLQGLLRIIPYLSFGEVEKMQILVERFKPYCNFDKYDEDHSGDDKVFLDCFCKIAAGIKNNSNGHQLKDLILQKGITQNALDYMKKHIPSAKNLDADIWKKFLSRPALPFILRLLRGLAIQHPGTQVLIGTDSIPNLHKLEQVSSDEGIGTLAENLLEALREHPDVNKKIDAARRETRAEKKRMAMAMRQKALGTLGMTTNEKGQVVTKTALLKQMEELIEEPGLTCCICREGYKFQPTK
With B2, the cells in S-phase at 24 hr after replating (FACS, stably transfected U2OS cells; control cells 64%) in assay [2] is 37%.

B3: GST-RB (646-928) (other, UniProt P06400 646-928, looked up)
chain: SLSLFYKKVYRLAYLRLNTLCERLLSEHPELEHIIWTLFQHTLQNEYELMRDRHLDQIMMCSMYGICKVKNIDLKFKIIVTAYKDLPHAVQETFKRVLIKEEEYDSIIVFYNSVFMQRLKTNILQYASTRPPTLSPIPHIPRSPYKFPSSPLRIPGGNIYISPLKSPYKISEGLPTPTKMTPRSRILVSIGESFGTSEKFQKINQMVCNSDRVLKRSAEGSNPPKPLKKLRFDIEGSDEADGSKHLPGESKFQQKLAEMTSTRTRMQKQKMNDSMDTSNKEEK
notes: Expressed in E. coli; not shown: glutathione S-transferase (GST) fusion partner of vector pGEX6P-1
B3: the binding result in assay [3] was “no binding”.

B4: GST-RB (379-646) (other, UniProt P06400 379-646, looked up)
chain: MNTIQQLMMILNSASDQPSENLISYFNNCTVNPKESILKRVKDIGYIFKEKFAKAVGQGCVEIGSQRYKLGVRLYYRVMESMLKSEEERLSIQNFSKLLNDNIFHMSLLACALEVVMATYSRSTSQNLDSGTDLSFPWILNVLNLKAFDFYKVIESFIKAEGNLTREMIKHLERCEHRIMESLAWLSDSPLFDLIKQSKDREGPTDHLESACPLNLPLQNNHTAADMYLSPVRSPKKKGSTTRVNSTANAETQATSAFQTQKPLKSTS
notes: as for B3
With B4, in assay [3], the binding result is “no binding”.

B5: hypophosphorylated RB (other, human, UniProt P06400 2-928, looked up)
chain: PPKTPRKTAATAAAAAAEPPAPPPPPPPEEDPEQDSGPEDLPLVRLEFEETEEPDFTALCQKLKIPDHVRERAWLTWEKVSSVDGVLGGYIQKKKELWGICIFIAAVDLDEMSFTFTELQKNIEISVHKFFNLLKEIDTSTKVDNAMSRLLKKYDVLFALFSKLERTCELIYLTQPSSSISTEINSALVLKVSWITFLLAKGEVLQMEDDLVISFQLMLCVLDYFIKLSPPMLLKEPYKTAVIPINGSPRTPRRGQNRSARIAKQLENDTRIIEVLCKEHECNIDEVKNVYFKNFIPFMNSLGLVTSNGLPEVENLSKRYEEIYLKNKDLDARLFLDHDKTLQTDSIDSFETQRTPRKSNLDEEVNVIPPHTPVRTVMNTIQQLMMILNSASDQPSENLISYFNNCTVNPKESILKRVKDIGYIFKEKFAKAVGQGCVEIGSQRYKLGVRLYYRVMESMLKSEEERLSIQNFSKLLNDNIFHMSLLACALEVVMATYSRSTSQNLDSGTDLSFPWILNVLNLKAFDFYKVIESFIKAEGNLTREMIKHLERCEHRIMESLAWLSDSPLFDLIKQSKDREGPTDHLESACPLNLPLQNNHTAADMYLSPVRSPKKKGSTTRVNSTANAETQATSAFQTQKPLKSTSLSLFYKKVYRLAYLRLNTLCERLLSEHPELEHIIWTLFQHTLQNEYELMRDRHLDQIMMCSMYGICKVKNIDLKFKIIVTAYKDLPHAVQETFKRVLIKEEEYDSIIVFYNSVFMQRLKTNILQYASTRPPTLSPIPHIPRSPYKFPSSPLRIPGGNIYISPLKSPYKISEGLPTPTKMTPRSRILVSIGESFGTSEKFQKINQMVCNSDRVLKRSAEGSNPPKPLKKLRFDIEGSDEADGSKHLPGESKFQQKLAEMTSTRTRMQKQKMNDSMDTSNKEEK
modifications: hypophosphorylated (sites not given)
notes: also called RB (hypo-phosphorylated)
Consider B5, for which, in assay [4], the binding result is given as “binds”.

B6: hyperphosphorylated RB (other, human, UniProt P06400 2-928, looked up)
chain: PPKTPRKTAATAAAAAAEPPAPPPPPPPEEDPEQDSGPEDLPLVRLEFEETEEPDFTALCQKLKIPDHVRERAWLTWEKVSSVDGVLGGYIQKKKELWGICIFIAAVDLDEMSFTFTELQKNIEISVHKFFNLLKEIDTSTKVDNAMSRLLKKYDVLFALFSKLERTCELIYLTQPSSSISTEINSALVLKVSWITFLLAKGEVLQMEDDLVISFQLMLCVLDYFIKLSPPMLLKEPYKTAVIPINGSPRTPRRGQNRSARIAKQLENDTRIIEVLCKEHECNIDEVKNVYFKNFIPFMNSLGLVTSNGLPEVENLSKRYEEIYLKNKDLDARLFLDHDKTLQTDSIDSFETQRTPRKSNLDEEVNVIPPHTPVRTVMNTIQQLMMILNSASDQPSENLISYFNNCTVNPKESILKRVKDIGYIFKEKFAKAVGQGCVEIGSQRYKLGVRLYYRVMESMLKSEEERLSIQNFSKLLNDNIFHMSLLACALEVVMATYSRSTSQNLDSGTDLSFPWILNVLNLKAFDFYKVIESFIKAEGNLTREMIKHLERCEHRIMESLAWLSDSPLFDLIKQSKDREGPTDHLESACPLNLPLQNNHTAADMYLSPVRSPKKKGSTTRVNSTANAETQATSAFQTQKPLKSTSLSLFYKKVYRLAYLRLNTLCERLLSEHPELEHIIWTLFQHTLQNEYELMRDRHLDQIMMCSMYGICKVKNIDLKFKIIVTAYKDLPHAVQETFKRVLIKEEEYDSIIVFYNSVFMQRLKTNILQYASTRPPTLSPIPHIPRSPYKFPSSPLRIPGGNIYISPLKSPYKISEGLPTPTKMTPRSRILVSIGESFGTSEKFQKINQMVCNSDRVLKRSAEGSNPPKPLKKLRFDIEGSDEADGSKHLPGESKFQQKLAEMTSTRTRMQKQKMNDSMDTSNKEEK
modifications: hyperphosphorylated (sites not given)
notes: also called P-RB
Turning to B6, the binding result in assay [4] is given as “binds”.

B7: FLAG-epitope-tagged RB (tag at the N-terminus) (other, UniProt P06400 1-928, looked up, not shown: small tags and cut ends)
chain: MPPKTPRKTAATAAAAAAEPPAPPPPPPPEEDPEQDSGPEDLPLVRLEFEETEEPDFTALCQKLKIPDHVRERAWLTWEKVSSVDGVLGGYIQKKKELWGICIFIAAVDLDEMSFTFTELQKNIEISVHKFFNLLKEIDTSTKVDNAMSRLLKKYDVLFALFSKLERTCELIYLTQPSSSISTEINSALVLKVSWITFLLAKGEVLQMEDDLVISFQLMLCVLDYFIKLSPPMLLKEPYKTAVIPINGSPRTPRRGQNRSARIAKQLENDTRIIEVLCKEHECNIDEVKNVYFKNFIPFMNSLGLVTSNGLPEVENLSKRYEEIYLKNKDLDARLFLDHDKTLQTDSIDSFETQRTPRKSNLDEEVNVIPPHTPVRTVMNTIQQLMMILNSASDQPSENLISYFNNCTVNPKESILKRVKDIGYIFKEKFAKAVGQGCVEIGSQRYKLGVRLYYRVMESMLKSEEERLSIQNFSKLLNDNIFHMSLLACALEVVMATYSRSTSQNLDSGTDLSFPWILNVLNLKAFDFYKVIESFIKAEGNLTREMIKHLERCEHRIMESLAWLSDSPLFDLIKQSKDREGPTDHLESACPLNLPLQNNHTAADMYLSPVRSPKKKGSTTRVNSTANAETQATSAFQTQKPLKSTSLSLFYKKVYRLAYLRLNTLCERLLSEHPELEHIIWTLFQHTLQNEYELMRDRHLDQIMMCSMYGICKVKNIDLKFKIIVTAYKDLPHAVQETFKRVLIKEEEYDSIIVFYNSVFMQRLKTNILQYASTRPPTLSPIPHIPRSPYKFPSSPLRIPGGNIYISPLKSPYKISEGLPTPTKMTPRSRILVSIGESFGTSEKFQKINQMVCNSDRVLKRSAEGSNPPKPLKKLRFDIEGSDEADGSKHLPGESKFQQKLAEMTSTRTRMQKQKMNDSMDTSNKEEK
notes: also called f:RB; f: RB
B7: the binding result in assay [5] is “binds”.

B8: GST-RB (379-772) (other, UniProt P06400 379-772, looked up)
chain: MNTIQQLMMILNSASDQPSENLISYFNNCTVNPKESILKRVKDIGYIFKEKFAKAVGQGCVEIGSQRYKLGVRLYYRVMESMLKSEEERLSIQNFSKLLNDNIFHMSLLACALEVVMATYSRSTSQNLDSGTDLSFPWILNVLNLKAFDFYKVIESFIKAEGNLTREMIKHLERCEHRIMESLAWLSDSPLFDLIKQSKDREGPTDHLESACPLNLPLQNNHTAADMYLSPVRSPKKKGSTTRVNSTANAETQATSAFQTQKPLKSTSLSLFYKKVYRLAYLRLNTLCERLLSEHPELEHIIWTLFQHTLQNEYELMRDRHLDQIMMCSMYGICKVKNIDLKFKIIVTAYKDLPHAVQETFKRVLIKEEEYDSIIVFYNSVFMQRLKTNILQYA
notes: as for B3
As to B8, in assay [3], the binding result is “no binding”.
